Patent publication US20220315909

Sequence of Recombinant Mouse u-Plasminogen Activator/Urokinase (chain, as listed by the source): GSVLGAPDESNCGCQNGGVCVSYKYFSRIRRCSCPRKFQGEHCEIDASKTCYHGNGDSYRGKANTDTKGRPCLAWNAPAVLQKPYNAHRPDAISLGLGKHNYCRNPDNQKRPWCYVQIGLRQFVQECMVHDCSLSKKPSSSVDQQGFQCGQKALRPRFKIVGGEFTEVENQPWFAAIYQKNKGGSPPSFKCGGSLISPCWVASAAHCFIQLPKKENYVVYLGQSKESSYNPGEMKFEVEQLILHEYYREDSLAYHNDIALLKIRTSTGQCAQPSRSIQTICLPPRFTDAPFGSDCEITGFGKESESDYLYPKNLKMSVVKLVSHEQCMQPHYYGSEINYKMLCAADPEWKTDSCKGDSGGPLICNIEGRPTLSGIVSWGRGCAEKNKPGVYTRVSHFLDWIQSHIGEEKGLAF

Recombinant Human u-Plasminogen Activator/Urokinase
cleavage ratio (PAR) on peptide array, human uPA 1000 nM (SEQ ID NO 18003): showed higher cleavage ratios than the sequence shown as SEQ ID NO: 3 for both the cleavages by human uPA and human MT-SP1 | cleavage ratio (PAR) on peptide array, human uPA 1000 nM (SEQ ID NOs: 5-17201): showed higher cleavage ratios than the sequence shown as SEQ ID NO: 2 for both the cleavages by human uPA and human MT-SP1 | cleavage ratio (PAR) on peptide array, human uPA 1000 nM (SEQ ID NO 17997): showed higher cleavage ratios than the sequence shown as SEQ ID NO: 3 for both the cleavages by human uPA and human MT-SP1 | cleavage ratio (PAR) on peptide array, human uPA 1000 nM (SEQ ID NO 17994): showed higher cleavage ratios than the sequence shown as SEQ ID NO: 3 for both the cleavages by human uPA and human MT-SP1 | cleavage ratio (PAR) on peptide array, human uPA 1000 nM (SEQ ID NO 17995): showed higher cleavage ratios than the sequence shown as SEQ ID NO: 3 for both the cleavages by human uPA and human MT-SP1 | cleavage ratio (PAR) on peptide array, human uPA 1000 nM (SEQ ID NO 17999): showed higher cleavage ratios than the sequence shown as SEQ ID NO: 3 for both the cleavages by human uPA and human MT-SP1 | cleavage ratio (PAR) on peptide array, human uPA 1000 nM (SEQ ID NOs: 17202-17993): showed higher cleavage ratios than the sequence shown as SEQ ID NO: 3 for both the cleavages by human uPA and human MT-SP1 | cleavage ratio (PAR) on peptide array, human uPA 1000 nM (SEQ ID NO 18001): showed higher cleavage ratios than the sequence shown as SEQ ID NO: 3 for both the cleavages by human uPA and human MT-SP1 | cleavage ratio (PAR) on peptide array, human uPA 1000 nM (SEQ ID NO 17998): showed higher cleavage ratios than the sequence shown as SEQ ID NO: 3 for both the cleavages by human uPA and human MT-SP1 | cleavage ratio (PAR) on peptide array, human uPA 1000 nM (SEQ ID NO 18000): showed higher cleavage ratios than the sequence shown as SEQ ID NO: 3 for both the cleavages by human uPA and human MT-SP1 | cleavage ratio (PAR) on peptide array, human uPA 1000 nM (SEQ ID NO 18002): showed higher cleavage ratios than the sequence shown as SEQ ID NO: 3 for both the cleavages by human uPA and human MT-SP1 | cleavage ratio (PAR) on peptide array, human uPA 1000 nM (SEQ ID NO 17996): showed higher cleavage ratios than the sequence shown as SEQ ID NO: 3 for both the cleavages by human uPA and human MT-SP1

Recombinant Mouse u-Plasminogen Activator/Urokinase
cleavage ratio (PAR) on peptide array, mouse uPA 1000 nM (SEQ ID NOs: 5-3204): showed higher cleavage ratios than the sequence shown as SEQ ID NO: 2 for all the cleavages by human uPA, human MT-SP1, and mouse uPA | cleavage ratio (PAR) on peptide array, mouse uPA 1000 nM (SEQ ID NO 17997): also showed higher cleavage ratios for mouse uPA than the sequence shown as SEQ ID NO: 3 | cleavage ratio (PAR) on peptide array, mouse uPA 1000 nM (SEQ ID NO 17994): also showed higher cleavage ratios for mouse uPA than the sequence shown as SEQ ID NO: 3 | cleavage ratio (PAR) on peptide array, mouse uPA 1000 nM (SEQ ID NO 17995): also showed higher cleavage ratios for mouse uPA than the sequence shown as SEQ ID NO: 3 | cleavage ratio (PAR) on peptide array, mouse uPA 1000 nM (SEQ ID NO 17999): also showed higher cleavage ratios for mouse uPA than the sequence shown as SEQ ID NO: 3 | cleavage ratio (PAR) on peptide array, mouse uPA 1000 nM (SEQ ID NO 17202): also showed higher cleavage ratios for mouse uPA than the sequence shown as SEQ ID NO: 3 | cleavage ratio (PAR) on peptide array, mouse uPA 1000 nM (SEQ ID NO 17998): also showed higher cleavage ratios for mouse uPA than the sequence shown as SEQ ID NO: 3 | cleavage ratio (PAR) on peptide array, mouse uPA 1000 nM (SEQ ID NO 17203): also showed higher cleavage ratios for mouse uPA than the sequence shown as SEQ ID NO: 3 | cleavage ratio (PAR) on peptide array, mouse uPA 1000 nM (SEQ ID NO 17996): also showed higher cleavage ratios for mouse uPA than the sequence shown as SEQ ID NO: 3
